From patent US20110266675A1

Biological target: microtubules assembled from fluorescein-modified bovine brain tubulin (α/β-tubulin) (bovine)
Experiment: cell-based or functional assay

Question: What does the source list for “Glutathione S-Transferase (GST)-tagged γ-Tubulin fusion protein (from UniProt P23258 1-451)”?
Answer: average length of MTs after 5 min of polymerization, on γ-tubulin-functionalized gold pads against solution without functionalized microchips: 1.68 micron; average length of MTs after 10 min of polymerization, on γ-tubulin-functionalized gold pads against solution without functionalized microchips: 3.47 micron
